Measured values taken from article PMC10397247.
One block for each binder: values may come before it.

Key:
4H968-bA = biological target: T1, 4H968-bA; assay: two-hybrid library CCNG1;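 further: natural log of median RNA to DNA barcode read ratio; higher means stronger binding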
T1 chain: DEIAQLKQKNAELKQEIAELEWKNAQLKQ

4H3112-bA = biological target: T2, 4H3112-bA; assay: two-hybrid library CCNG1;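 further: natural log of median RNA to DNA barcode read ratio; higher means stronger binding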
T2 chain: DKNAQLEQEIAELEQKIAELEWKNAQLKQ

4H346-bA = biological target: T3, 4H346-bA; assay: two-hybrid library CCNG1;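 further: natural log of median RNA to DNA barcode read ratio; higher means stronger binding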
T3 chain: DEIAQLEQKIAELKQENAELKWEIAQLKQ

4H918-bA = biological target: T4, 4H918-bA; assay: two-hybrid library CCNG1;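 further: natural log of median RNA to DNA barcode read ratio; higher means stronger binding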
T4 chain: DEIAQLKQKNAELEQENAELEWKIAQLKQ

4H3010-bA = biological target: T5, 4H3010-bA; assay: two-hybrid library CCNG1
T5 chain: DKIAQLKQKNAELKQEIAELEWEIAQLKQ

4H797-bA = biological target: T6, 4H797-bA; assay: two-hybrid library CCNG1
T6 chain: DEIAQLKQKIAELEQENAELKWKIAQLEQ

4H575-bA = biological target: T7, 4H575-bA; assay: two-hybrid library CCNG1
T7 chain: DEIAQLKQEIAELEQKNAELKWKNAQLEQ

4H2702-bA = biological target: T8, 4H2702-bA; assay: two-hybrid library CCNG1
T8 chain: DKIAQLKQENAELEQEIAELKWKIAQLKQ

4H780-bA = biological target: T9, 4H780-bA; assay: two-hybrid library CCNG1
T9 chain: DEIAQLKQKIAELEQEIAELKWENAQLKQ

4H754-bA = biological target: T10, 4H754-bA; assay: two-hybrid library CCNG1
T10 chain: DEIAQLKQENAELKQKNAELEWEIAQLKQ

4H3926-bA = biological target: T11, 4H3926-bA; assay: two-hybrid library CCNG1
T11 chain: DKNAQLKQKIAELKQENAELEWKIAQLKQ

4H457-bA = biological target: T12, 4H457-bA; assay: two-hybrid library CCNG1
T12 chain: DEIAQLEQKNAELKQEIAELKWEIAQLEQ

4H4073-bA = biological target: T13, 4H4073-bA; assay: two-hybrid library CCNG1
T13 chain: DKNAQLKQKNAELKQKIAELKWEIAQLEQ

4H953-bA = biological target: T14, 4H953-bA; assay: two-hybrid library CCNG1
T14 chain: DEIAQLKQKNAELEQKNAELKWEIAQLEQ

4H855-bA = biological target: T15, 4H855-bA; assay: two-hybrid library CCNG1
T15 chain: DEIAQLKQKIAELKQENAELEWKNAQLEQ

4H683-bA = biological target: T16, 4H683-bA; assay: two-hybrid library CCNG1
T16 chain: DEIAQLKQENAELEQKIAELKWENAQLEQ

4H3427-bA = biological target: T17, 4H3427-bA; assay: two-hybrid library CCNG1
T17 chain: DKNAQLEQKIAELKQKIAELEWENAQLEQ

4H2673-bA = biological target: T18, 4H2673-bA; assay: two-hybrid library CCNG1
T18 chain: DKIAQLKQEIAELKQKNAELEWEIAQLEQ

4H3939-AA = biological target: T19, 4H3939-AA; assay: two-hybrid library CCmax; settings: mean of both orientations
T19 chain: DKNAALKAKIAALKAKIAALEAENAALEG

4H675-AA = biological target: T20, 4H675-AA; assay: two-hybrid library CCmax; settings: mean of both orientations
T20 chain: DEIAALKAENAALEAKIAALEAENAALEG

4H497-AA = biological target: T21, 4H497-AA; assay: two-hybrid library CCmax; settings: mean of both orientations
T21 chain: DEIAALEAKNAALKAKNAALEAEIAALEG

4H1854-AA = biological target: T22, 4H1854-AA; assay: two-hybrid library CCmax
T22 chain: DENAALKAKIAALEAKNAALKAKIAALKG

4H3628-AA = biological target: T23, 4H3628-AA; assay: two-hybrid library CCmax; settings: mean of both orientations
T23 chain: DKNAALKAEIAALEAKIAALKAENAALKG

4H2713-AA = biological target: T24, 4H2713-AA; assay: two-hybrid library CCmax; settings: mean of both orientations
T24 chain: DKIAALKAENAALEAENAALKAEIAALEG

4H3417-AA = biological target: T25, 4H3417-AA; assay: two-hybrid library CCmax; settings: mean of both orientations
T25 chain: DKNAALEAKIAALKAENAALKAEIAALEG

4H3666-AA = biological target: T26, 4H3666-AA; assay: two-hybrid library CCmax; settings: mean of both orientations
T26 chain: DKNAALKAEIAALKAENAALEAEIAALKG

4H189-AA = biological target: T27, 4H189-AA; assay: two-hybrid library CCmax; settings: mean of both orientations
T27 chain: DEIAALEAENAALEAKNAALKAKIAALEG

4H2948-AA = biological target: T28, 4H2948-AA; assay: two-hybrid library CCmax; settings: mean of both orientations
T28 chain: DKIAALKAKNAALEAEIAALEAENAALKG

4H3121-AA = biological target: T29, 4H3121-AA; assay: two-hybrid library CCmax; settings: mean of both orientations
T29 chain: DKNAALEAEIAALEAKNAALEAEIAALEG

4H2991-AA = biological target: T30, 4H2991-AA; assay: two-hybrid library CCmax; settings: mean of both orientations
T30 chain: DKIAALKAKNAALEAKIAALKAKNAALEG

4H391-AA = biological target: T31, 4H391-AA; assay: two-hybrid library CCmax; settings: mean of both orientations
T31 chain: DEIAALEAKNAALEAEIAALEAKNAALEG

4H428-AA = biological target: T32, 4H428-AA; assay: two-hybrid library CCmax; settings: mean of both orientations
T32 chain: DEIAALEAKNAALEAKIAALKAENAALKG

4H2742-AA = biological target: T33, 4H2742-AA; assay: two-hybrid library CCmax; settings: mean of both orientations
T33 chain: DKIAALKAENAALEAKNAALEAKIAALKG

4H3446-AA = biological target: T34, 4H3446-AA; assay: two-hybrid library CCmax; settings: mean of both orientations
T34 chain: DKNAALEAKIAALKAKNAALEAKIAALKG

4H478-AA = biological target: T35, 4H478-AA; assay: two-hybrid library CCmax; settings: mean of both orientations
T35 chain: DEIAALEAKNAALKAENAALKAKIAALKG

4H2283-AA = biological target: T36, 4H2283-AA; assay: two-hybrid library CCmax; settings: mean of both orientations
T36 chain: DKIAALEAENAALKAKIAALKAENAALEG

4H2248-AA = biological target: T37, 4H2248-AA; assay: two-hybrid library CCmax; settings: mean of both orientations
T37 chain: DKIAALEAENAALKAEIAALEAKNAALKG

4H3709-AA = biological target: T38, 4H3709-AA; assay: two-hybrid library CCmax; settings: mean of both orientations
T38 chain: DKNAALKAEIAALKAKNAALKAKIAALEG

4H3102-AA = biological target: T39, 4H3102-AA; assay: two-hybrid library CCmax; settings: mean of both orientations
T39 chain: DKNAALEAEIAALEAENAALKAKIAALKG

4H3066-AA = biological target: T40, 4H3066-AA; assay: two-hybrid library CCmax; settings: mean of both orientations
T40 chain: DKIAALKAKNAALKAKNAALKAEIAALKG

4H3591-AA = biological target: T41, 4H3591-AA; assay: two-hybrid library CCmax; settings: mean of both orientations
T41 chain: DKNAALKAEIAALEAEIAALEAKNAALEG

4H656-AA = biological target: T42, 4H656-AA; assay: two-hybrid library CCmax; settings: mean of both orientations
T42 chain: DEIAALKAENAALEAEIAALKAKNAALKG

4H3920-AA = biological target: T43, 4H3920-AA; assay: two-hybrid library CCmax; settings: mean of both orientations
T43 chain: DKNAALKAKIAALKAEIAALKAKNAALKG

4H3029-AA = biological target: T44, 4H3029-AA; assay: two-hybrid library CCmax; settings: mean of both orientations
T44 chain: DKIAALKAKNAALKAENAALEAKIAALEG

4H971-AA = biological target: T45, 4H971-AA; assay: two-hybrid library CCmax; settings: mean of both orientations
T45 chain: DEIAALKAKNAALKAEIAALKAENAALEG

O3-bA = biological target: T46, O3-bA; assay: two-hybrid library CCNG1
T46 chain: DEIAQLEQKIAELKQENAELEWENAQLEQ

O7-bA = biological target: T47, O7-bA; assay: two-hybrid library CCNG1
T47 chain: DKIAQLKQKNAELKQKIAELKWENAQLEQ

O6-bA = biological target: T48, O6-bA; assay: two-hybrid library CCNG1
T48 chain: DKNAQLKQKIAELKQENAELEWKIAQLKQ

O4-bA = biological target: T49, O4-bA; assay: two-hybrid library CCNG1
T49 chain: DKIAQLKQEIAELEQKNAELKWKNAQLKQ

O5-bA = biological target: T50, O5-bA; assay: two-hybrid library CCNG1
T50 chain: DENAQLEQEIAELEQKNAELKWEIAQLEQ

O9-bA = biological target: T51, O9-bA; assay: two-hybrid library CCNG1
T51 chain: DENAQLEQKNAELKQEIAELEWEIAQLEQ

O8-bA = biological target: T52, O8-bA; assay: two-hybrid library CCNG1
T52 chain: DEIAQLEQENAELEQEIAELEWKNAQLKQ

O2-bA = biological target: T53, O2-bA; assay: two-hybrid library CCNG1
T53 chain: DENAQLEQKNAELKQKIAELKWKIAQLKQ

4H470-bH = biological target: T54, 4H470-bH; assay: two-hybrid library CCNG1
T54 chain: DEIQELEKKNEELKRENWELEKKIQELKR

P8A-bS = biological target: T55, P8A-bS; assay: two-hybrid library CCNG1
T55 chain: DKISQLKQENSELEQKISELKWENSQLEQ

P9A-bS = biological target: T56, P9A-bS; assay: two-hybrid library CCNG1
T56 chain: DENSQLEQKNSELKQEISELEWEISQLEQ

P7A-bS = biological target: T57, P7A-bS; assay: two-hybrid library CCNG1
T57 chain: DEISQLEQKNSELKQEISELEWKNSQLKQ

interaction score (4H968-bA): -0.811 | interaction score (4H3112-bA): -0.873 | interaction score (4H346-bA): -0.931 | interaction score (4H918-bA): -0.235 | interaction score (4H3010-bA): 2 | interaction score (4H797-bA): -2.16 | interaction score (4H575-bA): 0.276 | interaction score (4H2702-bA): -1.01 | interaction score (4H780-bA): -1.03 | interaction score (4H754-bA): -0.889 | interaction score (4H3926-bA): 1.58 | interaction score (4H457-bA): -1.45 | interaction score (4H4073-bA): 0.202 | interaction score (4H953-bA): -0.927 | interaction score (4H855-bA): 0.000366 | interaction score (4H683-bA): -0.575 | interaction score (4H3427-bA): -1.17 | interaction score (4H2673-bA): 0.275
Binder: DKIAQLKQEIAELKQKNAELEWEIAQLEQ [4H2673-bA]

interaction score (4H3939-AA): -1.28 | interaction score (4H675-AA): 0.675 | interaction score (4H497-AA): -1.88 | interaction score (4H1854-AA): 0.401 | interaction score (4H3628-AA): -1.22 | interaction score (4H2713-AA): -0.843 | interaction score (4H3417-AA): 1.7 | interaction score (4H3666-AA): 1.68 | interaction score (4H189-AA): -1.76 | interaction score (4H2948-AA): -0.756 | interaction score (4H3121-AA): 1.28 | interaction score (4H2991-AA): -1.61 | interaction score (4H391-AA): 0.189 | interaction score (4H428-AA): -0.746 | interaction score (4H2742-AA): -1.53 | interaction score (4H3446-AA): -1 | interaction score (4H478-AA): -1.16 | interaction score (4H2283-AA): -0.597 | interaction score (4H2248-AA): 1.14 | interaction score (4H3709-AA): -0.898 | interaction score (4H3102-AA): 0.389 | interaction score (4H3066-AA): -1.5 | interaction score (4H3591-AA): -0.937 | interaction score (4H656-AA): 0.553 | interaction score (4H3920-AA): -1.51 | interaction score (4H3029-AA): -0.674 | interaction score (4H971-AA): -2.3
Binder: DENAALKAKIAALEAKNAALKAKIAALKG [4H1854-AA]

interaction score (O3-bA): -0.0372 | interaction score (O7-bA): -0.0715 | interaction score (O6-bA): -0.5 | interaction score (O4-bA): -0.35 | interaction score (O5-bA): 0.59 | interaction score (O9-bA): 1 | interaction score (O8-bA): 0.682 | interaction score (O2-bA): -0.405
Binder: DENAQLEQKNAELKQKIAELKWKIAQLKQ [O2-bA]

interaction score (4H470-bH): 0.789
Binder: DEIQELEKKNEELKRENWELEKKIQELKR [4H470-bH]

interaction score (P8A-bS): 0.493 | interaction score (P9A-bS): -0.768 | interaction score (P7A-bS): -1.32
Binder: DEISQLEQKNSELKQEISELEWKNSQLKQ [P7A-bS]
